These results are taken from patent US20250042973A1 (WUHAN UNIVERSITY, published 2025).

The series deals with the molecule itself. The experiment in a line: self-association (homodimer) seen on SDS-PAGE / Western blot after nickel affinity purification. The procedure:
In a process of Western Blot, Gel block of samples from the Electrophoresis was electro-transferred to NC membrane at 100 V for 90 min. The NC membrane was then washed with TBST for three times, and blocked with 5% skim milk on a shaker for 2 h. After blocking, the NC membrane was then washed with TBST for three times, and incubated with GPER antibody (Invitrogen, PA5-28647) overnight. After that, the NC membrane was then washed with TBST for three times, and incubated with secondary antibody (HRP-labeled Goat Anti-Rabbit IgG, ABclonal, AS014, BR) at room temperature for 3 h, washed with TBST for three times, visualized the result in the dark room with DAB.

B1: recombinant protein of GPER (G protein-coupled estrogen receptor) (receptor)
chain: LSHPLLGTALANGTGELSEHQQYVIGLFLSCLYTIFLFPIGFVGNILILVVNISFREKMTIPDLYFINLAVADLILVADSLIEVFNLHERYYDIAVLCTFMSLFLQVNMYSSVFFLTWMSFDRYIALARAMRCSLFRTKHHARLSCGLIWMASVSATLVPFTAVHLQHTDEACFCFADVREVQWLEVTLGFIVPFAIIGLCYSLIVRVLVRAHRMKKYTCTVCGYIYNPEDGDPDNGVNPGTDFKDIPDDWVCPLCGVGKDQFEEVEEHRGLRPRRQKALRMILAVVLVFFVCWLPENVFISVHLLQRTQPGAAPCKQSFRHAHPLTGHIVNLAAFSNSCLNPLIYSFLGETFRDKLRLYIEQKTNL
notes: The source plasmid is wild-type GPER (pDNR-Dual, BC011634, HsCD00005110); The purified protein is reported as monomer and dimer; also called GPER protein
For the protein B1, the binding result is recorded as “binds”.
